By Kd is commonly meant the constant that tells how readily two partners part at equilibrium. High values mean weaker binding, low ones tighter binding. Usually stoichiometry N stands for a count of units in the complex or per binding partner.

Assay [1] deals with MPER_(664–690) peptide (HIV-1). As to the kind of experiment: ITC; Fab at 3 μM titrated with 12 injections of 40 μM peptide; VP-ITC, 25 °C; 10 mM sodium phosphate pH 7.5, 150 mM NaCl, 10% glycerol, 5 mM DPC; one-site binding model. On the technique in general: Isothermal titration calorimetry measures the heat released or taken up as one component is titrated into another.
The target in assay [2] is native HIV-1 Env (PVO, clone 4) on virions (HIV-1).

In assay [1], 10E8-2R Fab (LC S30R/N52R) displayed a Kd of 46.3 nM, a dH of -6.24 kcal/mol and a stoichiometry N of 1.17.
For the substance 10E8-2RF Fab (LC S30R/N52R, HC S100cF), the pseudovirus neutralisation (cell-entry inhibition, TZM-bl cells; JRCSF and PVO.4 PsV): potency of the Fab against the parental Fab 10E8-WT in assay [2] turned out to be 50 fold. In assay [1], this substance had a dissociation constant (Kd) of 41.3 nM, a dH of -2.3 kcal/mol and a stoichiometry N of 1.16.
In assay [1], 10E8-WT Fab showed a Kd of 32.4 nM, a dH of -6.73 kcal/mol and a stoichiometry N of 1.12.
